Like-named read-outs stand apart in the source and are kept apart here. No end group written: not given here.

Data set [1] concerns the target T1, UbcH7˜ubiquitin thioester (Homo sapiens, UniProt P68036).
T1 construct: made in house
The data set can be described thus: Kinetics of 125I-polyubiquitin chain formation by E6AP ligase forms with respect to [UbcH7]o. It counts as biochemical. As to the method: (§1) E6AP-catalyzed ^125I-Ubiquitin Conjugation Assay: The E3 ligase activity of recombinant E6AP ligase was quantitated in kinetic assays under initial velocity conditions (Ronchi et al., (2013) J. Biol. Chem. 288, 10349-10360, Ronchi & Haas (2012) Methods Mol. Biol. 832: 197-218). Rates of E6AP-catalyzed ^125I-polyubiquitin chain formation were measured at 37° C. in incubations of 25-μl final volume containing 50 mM Tris-HCl (pH 7.5), 1 mM ATP, 10 mM MgCl2, 1 mM DTT, 10 mM creatine phosphate, 1 IU of creatine phosphokinase, 5 μM ^125I-ubiquitin (approximately 1.5×10^4 cpm/pmol), 50 nM human Uba1, and the indicated concentrations of UbcH7 and E6AP ligase (Siepmann et al., (2003) J. Biol. Chem. 278: 9448-9457; Baboshina et al., (2001) J. Biol. Chem. 276: 39428-39437).
(§2) Reactions were initiated by the addition of ^125I-ubiquitin. After 10-30 min, the reactions were quenched by the addition of 25 μl of 2×SDS sample buffer containing 0.3% (v/v) β-mercaptoethanol, and then the samples were heated to 100° C. for 3 min. The polyubiquitin conjugates were resolved from free ^125I-ubiquitin by 12% (w/v) SDS-PAGE under reducing conditions at 4° C. and visualized by autoradiography of the dried gels.
(§3) Polyubiquitin chain formation was measured by excising lanes between the top of the resolving gel and the top of the stacker gel, representing anchored and free ^125I-polyubiquitin chains, respectively, and quantitating associated ^125I-ubiquitin by γ-counting. Absolute rates of ^125I-polyubiquitin chain formation were calculated from the associated radioactivity and the corrected specific radioactivity for ^125I-ubiquitin. Datum points represent single assay determinations, and complete data sets were evaluated by non-linear regression analysis using GraFit version 5.0 (Erithicus). Active Uba1, E2, and E6AP ligase were independently determined in parallel by their stoichiometric formation of ^125I-ubiquitin thioester.

In data set [2] the target is T2, GST (Schistosoma japonicum, UniProt P08515). The following applies: literature value, cited from earlier work.
T2 sequence (P08515 whole entry): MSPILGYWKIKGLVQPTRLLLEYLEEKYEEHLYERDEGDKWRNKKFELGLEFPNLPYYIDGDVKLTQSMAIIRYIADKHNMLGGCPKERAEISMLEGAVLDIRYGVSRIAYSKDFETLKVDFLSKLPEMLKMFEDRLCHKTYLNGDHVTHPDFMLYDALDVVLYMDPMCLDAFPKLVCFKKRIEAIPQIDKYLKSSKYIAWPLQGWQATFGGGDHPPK
The subject of data set [3] is E6AP ligase. The data set is described as follows: E6AP-catalyzed 125I-polyubiquitin chain formation, initial rates. Conditions: free GST less than 5 μM; GST-E6AP. It counts as biochemical, Human. As to the method:
as §1, §2, §3

Data set [4] has as its target T2, GST. The data set can be described thus: GST dimerization. It counts as binding. The following applies: predicted from ΔΔGbinding of GST-E6APΔ495 vs E6APΔ495.
In a further data set the target is T3, His6-E6AP ligase (Homo sapiens, UniProt Q05086).
T3 construct: Full-length recombinant His6-E6AP ligase was isolated from the medium; made in house; host or cells: Sf9 insect cells (baculovirus)
T3 sequence (Q05086 1-872 isoform Q05086-3): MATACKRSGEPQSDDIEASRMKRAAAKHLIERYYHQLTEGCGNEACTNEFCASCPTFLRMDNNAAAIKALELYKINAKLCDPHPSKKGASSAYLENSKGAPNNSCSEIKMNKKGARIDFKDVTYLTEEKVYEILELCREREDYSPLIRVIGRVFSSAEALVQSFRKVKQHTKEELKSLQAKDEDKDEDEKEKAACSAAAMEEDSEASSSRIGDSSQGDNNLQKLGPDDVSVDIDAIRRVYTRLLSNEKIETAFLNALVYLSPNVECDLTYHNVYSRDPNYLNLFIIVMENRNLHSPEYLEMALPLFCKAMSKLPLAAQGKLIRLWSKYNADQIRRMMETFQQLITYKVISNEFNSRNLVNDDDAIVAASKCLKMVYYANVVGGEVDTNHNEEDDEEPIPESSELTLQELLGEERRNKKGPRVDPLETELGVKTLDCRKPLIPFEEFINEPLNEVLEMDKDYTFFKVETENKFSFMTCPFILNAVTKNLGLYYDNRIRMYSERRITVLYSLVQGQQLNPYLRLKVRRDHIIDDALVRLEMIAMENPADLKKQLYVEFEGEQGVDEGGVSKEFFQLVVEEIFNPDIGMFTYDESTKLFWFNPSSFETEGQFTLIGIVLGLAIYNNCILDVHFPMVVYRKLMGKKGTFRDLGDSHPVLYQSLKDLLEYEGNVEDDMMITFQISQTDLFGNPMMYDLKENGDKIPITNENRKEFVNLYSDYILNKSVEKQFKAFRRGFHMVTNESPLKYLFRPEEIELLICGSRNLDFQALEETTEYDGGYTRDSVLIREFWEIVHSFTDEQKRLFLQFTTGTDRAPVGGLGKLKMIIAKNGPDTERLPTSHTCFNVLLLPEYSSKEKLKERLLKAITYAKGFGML
The data set is described as follows: Static light-scattering of His6-E6AP ligase oligomer. As for the experimental part: Static Light-scattering Measurements: His6-E6AP ligase after the His trap affinity purification step was further purified by FPLC using a Mono Q 5/50 column (Amersham Biosciences) equilibrated in 50 mM Tris-HCl (pH 7.5) and 1 mM DTT. Recombinant His6-E6AP ligase eluted at 300 mM NaCl in a 0-500 mM gradient (16 mM/ml, 1 ml/min). The molecular weight of His6-E6AP ligase was determined in solution at 37° C. by static light-scattering using a 235-DynaPro NanoStar laser light-scattering spectrometer at 663 nm wavelength (Wyatt Technology Corp.). Spectra were collected for 18 μM His6-E6AP ligase in 50 mM Tris-HCl (pH 7.5) containing 200 mM NaCl. The effect of Ac-PheNH2 on the molecular weight of His6-E6AP ligase was determined in 50 mM Tris-HCl (pH 7.5) containing 200 mM NaCl, 16 μM His6-E6AP ligase total protein, 61 mM Ac-PheNH2, and 8% (v/v) carrier methanol. The molecular weight of E6AP ligase was also evaluated in reactions containing 0-350 μM Ac-NRIRMYSERRITVLYSL (SEQ ID NO: 1) in 50 mM Tris-HCl (pH 7.5), 250 mM NaCl, 1 mM DTT, and 17 μM His6-E6AP. Data were analyzed with Dynamics® software at both default and maximum sensitivity to detect the presence of low concentrations of E6AP ligase oligomeric forms.

Data set [5] has as its target T4, E6AP ligase (Homo sapiens, UniProt Q05086).
T4 construct: corresponding to full-length GST-E6AP; made in house; host or cells: E. coli
T4 sequence (Q05086 1-872 isoform Q05086-3): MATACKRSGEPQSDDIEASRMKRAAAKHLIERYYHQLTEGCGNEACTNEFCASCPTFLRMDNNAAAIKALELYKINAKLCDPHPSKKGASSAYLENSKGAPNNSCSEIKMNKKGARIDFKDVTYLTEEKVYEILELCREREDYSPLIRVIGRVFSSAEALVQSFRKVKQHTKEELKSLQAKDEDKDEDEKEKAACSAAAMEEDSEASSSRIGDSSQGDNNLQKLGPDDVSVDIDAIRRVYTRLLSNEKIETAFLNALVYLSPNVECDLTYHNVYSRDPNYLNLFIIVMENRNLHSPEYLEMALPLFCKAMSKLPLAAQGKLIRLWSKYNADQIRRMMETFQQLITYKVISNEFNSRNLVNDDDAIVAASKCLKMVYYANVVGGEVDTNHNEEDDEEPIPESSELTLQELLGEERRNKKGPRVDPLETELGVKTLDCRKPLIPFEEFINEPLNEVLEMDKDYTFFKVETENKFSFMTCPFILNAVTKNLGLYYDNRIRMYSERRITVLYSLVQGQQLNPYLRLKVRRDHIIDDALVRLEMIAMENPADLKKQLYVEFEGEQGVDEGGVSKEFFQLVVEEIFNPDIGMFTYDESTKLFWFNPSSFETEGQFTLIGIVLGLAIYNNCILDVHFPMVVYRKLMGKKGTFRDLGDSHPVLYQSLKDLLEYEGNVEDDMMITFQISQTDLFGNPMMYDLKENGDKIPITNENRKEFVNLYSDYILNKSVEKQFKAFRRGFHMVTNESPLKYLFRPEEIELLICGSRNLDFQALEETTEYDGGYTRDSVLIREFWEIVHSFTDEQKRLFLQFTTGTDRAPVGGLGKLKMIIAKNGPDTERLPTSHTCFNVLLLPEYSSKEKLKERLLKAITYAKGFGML
The data set is described as follows: E6AP-catalyzed 125I-polyubiquitin chain formation, initial rates. It counts as biochemical. The following applies: for mode of action: with respect to [UbcH7]o. As for the experimental part: as §1, §2, §3

The mark [6] stands for this setting: Table 1, Hect domain row is monoubiquitination.
Setting [7] is: non-competitive with respect to [UbcH7]o, His6-E6AP, read-out: Ki.

T1 sequence (P68036 whole entry, other chains not shown): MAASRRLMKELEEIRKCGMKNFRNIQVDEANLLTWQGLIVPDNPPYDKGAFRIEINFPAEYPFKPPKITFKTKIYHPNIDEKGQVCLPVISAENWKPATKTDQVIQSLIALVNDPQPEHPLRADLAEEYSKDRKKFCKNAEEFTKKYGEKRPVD

What is called Km is the substrate concentration at which the rate is half of its maximum. By kcat is commonly meant the number of substrate molecules converted per active site and unit of time at saturation. “Homogeneous His6-E6AP: baculoviral-expressed full-length His6-E6AP ligase”: the Michaelis-Menten constant (Km) in data set [1] and in data set [1] (setting [6]) was 0.046 ± 0.007 µM each time. The kcat was 0.63 ± 0.03 s⁻¹ in data set [1] and 6.3 ± 0.3 × 10^−1 s^−1 in data set [1] (Table 1). Also, the “kcat higher than heterogeneous GST-E6AP” value in data set [1] is on record as 20 fold.
One may read the Kd as the concentration at which binding is half-saturated. Regarding “GST: recombinant free glutathione-S-transferase”, in the data set with GST [2] (b128, read-out: Kd for GST dimerization), the Kd is 0.6 µM. Besides, the “Kd for GST association, published value” with GST [2] (b130) was 0.6 µM. In addition, in the data set on E6AP ligase [3], the “K½ of decrease in initial rate of polyubiquitin chain formation” value was “approximately 1 μm”. In addition, the “Kd for GST association” value with GST [4] is 1.6 µM.
For “Ac-NRIRMYSERRITVLYSL [Ac-NRIRMYSERRITVLYSL peptide, Ac-NRIRMYSERRITVLYSL]”, the “effect on E6AP ligase oligomer” value on His6-E6AP ligase is “promotes dissociation”. The Ki on E6AP ligase [5] (His6-E6AP, hyperbolic dependence, semi-reciprocal plot, read-out: Ki (apparent)) was 22 ± 2 µM. The mode of action result on E6AP ligase [5] is listed as “non-competitive inhibitor”.
Consider `CC(=O)N[C@@H](Cc1ccccc1)C(N)=O` [Ac-PheNH2, N-acetyl-L-phenylalanylamide], for which, at His6-E6AP ligase, the “effect on E6AP ligase oligomer” value is recorded as “disrupts trimer formation”. Besides, the “molecular weight of His6-E6AP ligase peak after addition” value at His6-E6AP ligase (61 mM Ac-PheNH2, 16 μM His6-E6AP, 8% methanol) is 104 kDa. For the same molecule, the Ki on E6AP ligase [5] (125I-polyubiquitin chain formation, read-out: Ki) was found to be 12000 ± 3000 µM; on E6AP ligase [5] (His6-E6AP, non-competitive with respect to [UbcH7]o, absence or presence of 44 mM Ac-PheNH2, read-out: Ki) it was 12000 ± 3000 µM. The “effect on polyubiquitin chain formation” value on E6AP ligase [5] (inhibitors, at higher concentrations) is recorded as “quantitative inhibition”. Besides, the mode of action result on E6AP ligase [5] is “non-competitive inhibitor”.

B1: GST-E6AP ligase Hect domain: GST fusion of E6AP ligase Hect domain residues 450-852 (protein, UniProt Q05086 450-852, looked up, fragment)
chain: INEPLNEVLEMDKDYTFFKVETENKFSFMTCPFILNAVTKNLGLYYDNRIRMYSERRITVLYSLVQGQQLNPYLRLKVRRDHIIDDALVRLEMIAMENPADLKKQLYVEFEGEQGVDEGGVSKEFFQLVVEEIFNPDIGMFTYDESTKLFWFNPSSFETEGQFTLIGIVLGLAIYNNCILDVHFPMVVYRKLMGKKGTFRDLGDSHPVLYQSLKDLLEYEGNVEDDMMITFQISQTDLFGNPMMYDLKENGDKIPITNENRKEFVNLYSDYILNKSVEKQFKAFRRGFHMVTNESPLKYLFRPEEIELLICGSRNLDFQALEETTEYDGGYTRDSVLIREFWEIVHSFTDEQKRLFLQFTTGTDRAPVGGLGKLKMIIAKNGPDTERLPTSHTCFNVLLLPEY
modifications: HECT domain GST fusion
Regarding B1, the Km in data set [1] and in data set [1] (setting [6]) was 0.089 ± 0.011 µM throughout. In addition, the “kcat lower than full-length E6AP ligase” value in data set [1] was 2000 fold. In addition, the kcat in data set [1] (Table 1) was 3.2 ± 0.1 × 10^−4 s^−1.

B2: E6(HPV16)Ct: recombinant E6 C-terminal domain encompassing residues 89-158 (protein, UniProt P03126 89-158, looked up, fragment)
chain: SLYGTTLEQQYNKPLCDLLIRCINCQKPLCPEEKQRHLDKKQRFHNIRGRWTGRCMSCCRSSRTRRETQL
Regarding B2, in the data set with E6AP ligase [5] (setting [7]), the Ki came to 4 µM. The mode of action entry with E6AP ligase [5] is recorded as “non-competitive inhibitor”.

B3: E6(HPV16)Δ91: recombinant E6 N-terminal domain encompassing residues 1-91 (protein, UniProt P03126 1-91, looked up, fragment)
chain: MHQKRTAMFQDPQERPRKLPQLCTELQTTIHDIILECVYCKQQLLRREVYDFAFRDLCIVYRDGNPYAVCDKCLKFYSKISEYRHYCYSLY
B3: the Ki with E6AP ligase [5] (hyperbolic concentration dependence, not shown, read-out: apparent Ki) stood at 4 µM; in the data set with E6AP ligase [5] (setting [7]), 6 µM. Also, the mode of action result in the data set with E6AP ligase [5] was “non-competitive inhibition”.

The values above are taken from patent US9725708B2, “Methods of modulating ubiquitin ligase activity” (Board of Supervisors of Louisiana State University and …, priority 2012, dated 2017).
